Reference: the supplement of paper PMC10567573

B1: RAD51 (parent)
chain: RFLRMLLRLADEFGVAVVITNQVV
B2: BCL2L13 (parent)
chain: QSLDQEILLKVKTEIEEELKSLDK

Variants of: B1
Experiment: protein stability index of a GFP-peptide fusion (GPS, HEK-293T) (PSI 1-6); higher = more stable
Details: c terminus: a fixed tail appended
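Note: lentivirally expressed fusions sorted by FACS into six bins by GFP to DsRed ratio, PSI derived from sequencing read proportions per bin multiplied by bin number.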

Protein stability index: each site, then its substitutions
I19: A 3.02, W 1.96, G 1.58, V 1.63, Y 2.79, R 3, P 1.47, S 1.95, Q 1.37, L 1.45, H 1.25, N 2.67, D 2.76, T 2.84, C 2, F 2.18, K 2.52
T20: F 1.3, E 1.53, Y 1.97, N 1.21, G 1.98, L 2.3, V 2.82, W 3.05, M 1.44, C 1.8, I 2.75, D 2.52, P 2.72, Q 2.26, S 3.06, A 2.68, K 3.31, R 2.34
V23: R 1.09, M 2.37, H 2.07, P 2.23, A 2.66, F 3.02, Y 1.5, W 1.98, N 1.9, C 2.69, Q 1.98, I 3.7, T 1.51, L 2.38, K 2.73, E 1.9, S 2.56, D 2.64
Q22: P 1.99, I 1.43, L 1.68, A 1.52, H 1.9, S 2.47, K 1.39, N 1.85, T 1.44, D 1.65, V 2.24, F 1.29, M 1.65, R 2.08, C 2.3, Y 2.77, E 3.17, G 2.92
V24: A 1.89, I 3.73, N 1.86, H 3.01, S 1.44, G 2.11, D 2.48, P 2.06, F 2.68, Q 2.83, Y 1.6, M 2.4, C 2.11, K 1.45, W 1.25, E 1.41, L 2.03, T 1.83, R 2.55
N21: P 1.7, Q 1.9, V 2.43, D 4.17, C 1.32, Y 2.19, M 4.31, R 1.68, T 2.02, W 1.76, F 2.06, L 1.97, G 3.1, A 2.52, K 2.3, I 1.43, E 1.08, S 1.19, H 1.43
V17: W 2.41, Y 2.83
V18: L 2.62, E 2.44, R 2.94, N 3.8, F 1.24, Q 2.87, H 3.04, D 2.79, A 3.03, G 2.45, M 3.82, I 1.87, T 3.38, P 2.32, K 3.09, C 2.1, W 2.75, S 3.17

Variants of: B2
Experiment: as above
Details: c terminus: a fixed tail appended

Protein stability index, by site and new letter:
S2: R 4.49, F 4.24, G 3.38, E 5.52, Y 4, L 3.95, K 4.24, N 4.92, H 4.75, M 4.2, W 1.48, T 5.16, Q 4.97, C 4.09, V 4.16, I 4.91, P 4.71
L3: S 5.31, I 4.72, D 5.72, A 5.71, Y 5.07, N 5.64, F 4.87, V 5.31, T 4.99, M 5.47, C 4.97, H 5.54, P 4.59, Q 5.41, G 5.16, W 4.66, K 4.88, E 5.63
L8: R 5.71, S 5.18, P 5.17, Y 3.76, F 5.14, C 5.55, K 4.75, T 5.71, G 5.45, H 5.63, Q 5.42, E 5.41, A 5.62, I 4.14, N 5.9, W 2.91, D 5.83, V 5.32, M 5.37
V11: K 5.99, H 4.56, P 5.61, L 3.5, R 5.33, E 5.63, I 4.19, F 4.83, Q 5.54, T 5.51, C 4.77, A 5.53, M 4.95, G 5.36, W 5.5
K12: R 4.77, H 4.71, G 5.65, D 4.08, C 4.43, P 5.38, F 3.15, A 4.94, Q 4.62, L 2.13, E 5.6, N 5.97, M 1.81, I 2.6
L9: T 5.25, K 4.81, Q 5.37, H 5.39, V 5.26, G 5.13, F 4.66, R 5.05, C 5, S 5.21, W 4.4, N 5.48, Y 4.45, E 5.45, M 4.49, P 4.87, I 4.29
D4: H 4.69, W 2, E 4.58, R 3.63, V 2.66, M 2.83, L 2.79, S 4.42, A 4.27, K 4.55, C 4, Q 4.66, F 2.34, I 2.28, T 3.5, N 4.52
Q5: K 4.7, W 3.67, N 4.61, I 2.95, P 4.4, S 4.51, M 4.05, E 4.8, F 2.83, L 2.99, G 4.95, Y 3.38, H 3.64, V 3.62, C 4.67, D 5.28, R 4.14
I7: T 4.27, L 5.32, Q 5.12, K 5.51, E 5.63, Y 5.46, G 5.33, S 5.69, M 5.3, P 5.83, F 4.64, R 5.61, W 2.94, V 5.62, D 5.68, H 5.07, N 5.33, A 5.66
K10: L 3.19, R 3.09, N 5.21, D 5.67, V 3.53, Q 5.35, C 4.16, W 3.15, G 4.83, F 3.67, S 5.01, E 5.2, Y 3.85, H 4.66, I 3.21, P 5.4, A 4.98, T 4.84, M 3.09
Q1: H 4.92, Y 3.69, G 4.67, T 4.6, A 5.04, I 3.44, F 3.89, D 4.78, M 4.16, K 4.38, W 3.55, E 4.67, L 3.7, R 4.64, S 4.54, N 4.98, C 4.3, V 3.97
E6: R 3.67, Y 3.47, M 3.71, F 3.51, T 4.62, N 5.24, G 4.78, S 4.79, H 4.15, W 2.76, L 3.58, Q 4.56, P 5.35, I 3.27, V 3.92, A 3.94, D 4.83
